Laboratory results: patent US20020019349A1

Target: relaxin binding sites on primary human fetal cardiac cells (receptor not named) (human)
Test: competitive binding on cultured cells: 100 µM 32P-relaxin, 2 hr at room temperature, with or without 1000-fold excess of unlabeled relaxin; (total - nonspecific)/total x 100

Work on “32P-labeled relaxin (from UniProt P04090 162-185; P04090 25-53) (ligand)” yielded a percent specific binding of 40 to 55%.
